Measured values taken from the DeepSol protein solubility set.

Assay: soluble on expression in E. coli; label from the status in PepcDB or PDB records

| Sequence | soluble on expression in E. coli |
| --- | --- |
| YATQSKNTNILLEYVSANPTGDLHIGHARNAAVGDSLANILIAAGYNVTREYYINDAGNQITNLARSIEARYFEALGDTSYEMPADGYNGKDIIEIGKDLAVKHPEIKDYSDEERLKTFRQLGVDYEMEKLKKDLSDFNVHFDNWFSETSLYENGAIKNTLSKMKELGYTYEADGATWLRTSDFKDDKDRVLIKKDGNYTYFTPDTAYHYNKINRGNDILIDLMGADHHGYINRLKASLETFGVDSDRLEIQIMQMVRLMQNGEEVKMSKRTGNAITLREIMDEVGIDAARYFLTMRSPDSHFDFDLELAKEQSQDNPIYYAQYAHARICSILKQAKE | not soluble |
| MSATKSEMPADVASVTDSSAASPAFPLIGDFLEEFLKCQVCCTNYNETTKLARGLHCGHTFCTECIKTMQKYGNSAYLECPSCRAETKCDIAAVSTNFAIMELIRKCGFLGPEKPEEPPMKQAAQPQLEQTIDELIDEGYRLLIADVKADLMAKFEQLRDVSKTSTIEATKADLEVLCDSVKEAVYEADLEYSYDEEESDEDEEENEDEEDVEEEEEKPCAEKKSPAQPERSSSLVRGFQIGLSRLFRNRRIHTEHLQVDHGAIATKLETRAACTEKSDNVKK | not soluble |
| MYQETKQFYHLWLLAVQERDEAREHLKQSLVELSRLQECFNTILLSEDQQIPHYSYSETTDETPDHQKLYSYNNFSNESPSRFSSASSIDLVSNSTVYSSPETYDSDCYSLRTLQMGFAFEEKKDFETLVLENIGLGRMLPENGKFQQAIIEAGSLVDSLFITGPIPKWRNPPVQMLSQRPLLSHSIGKWNYGGQGIINRSFSGKMPRLSLMP | soluble |
| YANRESLIKRYTLKVLEQIAWLPEAQSLDEAKVQEALEDASQTIDSYLGGRYVLPLKTVPAVLERHCCYIARYFLEKNRATDQARQDYEDTIRFLEKVASGAISLGLSDDDETVESENGAMMESAGSVWGRNT | not soluble |
| MMTSAFAPSEQSLVASPQDLPAVDVAIVGAGIVGLSLACALRNSGLAIALIEATPYRRENTKGQAYALHQVSRYFFEEIGVWDKLMPHVQPFEVVQLSDERFPLTVHFSPADLGTEALGYVGEHSAIAETLQSVLQSAGNVTFYCPWRVVTNEVHGDRAQLTLISGDPGEPKVAHLAARLVVAADGGKSPLRQQMGIEPKGWQYPQSCVVATLDVAHPQPVIAYERFWPTGPMGVLPLPRNRYRVVWTLPHPEAEAVAALDDRSFLATLQPYLDPQMAEITAVGDRFVFPAQFMQVNSYAADRFVVIGDAAHRCHPVGGQGLNLGLRDVWNLAQQILASPLEEIGDRRHLMHFHRQRWWQNVLTLAFTDFLNRLFSNTGWPLVAVRRCGLGLLCLLPPLKRLLLRFMAGLLLPLPGDREFPRGRLEHHHHHH | not soluble |
| MADSTATSTPRAVPSHEDRPVYVIGGGPGGLAAAHALRAQGVRAVVLEKSDRVGASWRRHYDRLHLHTTRRLSALPGLPMPRSFGRWVSRDNVVRYLEKYVEHHQLEIVTGVEVSRVEPAPDGTGWLLHATGGRELTGSAVVVATGHNHTPHLPDWPGRDAYTGELLHAGDYRNATPHAGRDVLVVGVGNTGAEIAVDLVEGGASRVRLAVRTAPHIVRRSTAGWAAQFTGIVVRRLPVRLVDLLAGPMARLSVPDLSAQGLPRPDTGLYSRVREGSIPVQDVGLIDAVRKGRVEIVAAVDGFEDGKVVLADGNRIGPDVVIAATGYARALEDLVGHLDVLDGRGRPTVHGARTPRTAPGLYFTGFTNPISGMFRELAIDAEKIAKAVAKALARTTARTPALEHHHHHH | soluble |
| MKAKLKQLRRLVESSFPEIENFHEKVDASFEKLENAKSFWSEIYVAHLKVVGDGVKVPESVFIKVPRISENVLRCEDESAVNHLNDVLLYYSKKENLFYKHFEYGSIPNFPFPKVYFTEDINGEATGGIVAENLSEKVFAVEHIPGLKHEQILRLMEALAGLHSFLMKRDDKSYVESFVEGAHGRETFSEGMQNMMFEEALTLENVSPEVFGNDRIRNIKWSFDYSIKNKATADAISAFPGIICHADLNVTNVLWKKDSAKDEISAIIDYQMLFIGSIAFDIIRVLTLGLNREIRRKMTQNYLDHYHKTLTELSNGKAPFSMEELLHQYSLIYPFSSNFSLFGIALYIKMYSDGTLGNPEDKEENCKELIDRALGIVEDIEALKNNYK | not soluble |
| MSLGLFSKKPPCPICGGKIPLILPSKIEDEYICNTCYNKIDMGADQENHLTMQGLREYLAFYEQNQRLKEQFVISERIDFGLWDTKIIFDHRNKLFCMSKNPDKTVFEGQQLKSFTIKEDSTPLFEGSAAGIRRYASTVTERTMAMAPQIAQSAANRRMARTLDRLDDGKVNNSAPVQYFDIPEPFQAFNVELHFDHPYWTVLQCDMDGPRFDNSHPDVNNYLRSYQQSIEEIEKLVAALRTVAFPGAAEQSVGLGPVGMQAAYTTMAPPTDAIEEIKKYKALMEDGIISQQEFEAKKKQLLGIEGHHHHHH | soluble |
| MNNVEKAIEALKKGEIILVYDSDEREGETDMVVASQFITPEHIRIMRKDAGGLICTALHPDICNKLGIPFMVDILEFASQKFKVLRELYPNDIPYDEKSSFSITINHRKTFTGITDNDRAFTIKKLAELVKEGRFNDFGKEFRSPGSVTLLRAAEGLVKNRQGHTEMTVALAELANLVPITTICEMMGDDGNAMSKNETKRYAEKHNLIYLSGEEIINYYLDKYLKD | soluble |
| MQKKEKEGRRKLKYDSNDGLLPEIRRVCGFPHHISEELSARGSGKKKKQVEEEWKWPEAQICGICSSGGNILCCEQCPASFHLACIGYESSDLPDDNFYCNRCRNLPENVRLFPPEKCSPSVNPVLRVENENHRNWEAIEYHCNRLRDEEQAEKMKKDVAYGPKSEFAEIQDCFRDKNLLKALGMANPMDYTIPPEFQADRDCFSGDAMEDKRPTIMGEVCAECNLKDDWTRMLKCDFCDLIWHQKCVTPPLIHVRAYFYWMCPRHPETVIDSVLIGDEISREDRRRLYDKYADVEPSYEIFEEFCIKTEQFRMKSEVFDSEEMYYDPEEASTSFMQTVIKPRQTSRKTTGRSASKKKSNGRFFASSWDFPGLSSRETSPSRKNSRKSPDSVATERKDRVLDKIDKKRSIKLTEEEIIMSIMPVEESSRAEYLTQKMLGTDIEQSTNFFNRHSAMIDRIRAFYGNLPEKELIKLMREDLDPVETIRGGGTQSIISQNEKPYRKKLKADVEVLIQHVGLGTDSTERHFNSIGTEAFYRRCAPPVTARNVLNQKTLREVVLNSQKEAHEGAGVYEYHAEPEQLENLVLLAYEPSFESPEDRDTYFVPSMTIWSKEPICALTRKWAASGASKQAPPSSSSSEAPSVEAEVKEEVVEEEDEENEARMRRESTATSSIVYNNDTGPLEFIEENMPPPAATITEKSDPFDFSSLEMPEIHEKAETVYEAEGYYGESDDLPLDLRRTKSESDLVDRIIWPLVRSALQNFIRREDCHQMHLEHNYSSLYQTHDSDEENQPVVEVEKLITYEEYQENLYSAEFASPQTPPPIPPPPAVYYDNFSDAPRKRGRPVGSRNRKEGDTTIPKQQRKRNPQPVGRGRGRGGGRPRGSRSSRGSMDDGGGSRRHSTASDANESAELLNQPVTKQLRDEIKEIKLKYTKMMMDRGFEQAKDEYFRNRDAALSKWTPEQWKEHNEQCVAARLSSLIPYDQRYFLPTQRVLARLDLEDGDLRLPAVHLPIAIQRCVTKLGTAHDCHVRCDKLTGDAWCSVLADYHCDIVRDYYSDNFYISTLGTEAVFVDGRAVRRPRLTPFEAAEKLRTRGSSTIIPPHIKCRCQKHSDLQISRQESTGELVRCGILKLEHGARIQIGCVAFIFSRI | not soluble |
| GAMGSMKPYLFDLKLKDTEKLDWKKGLSSYLKKSYGSSQWRTFYDEKATSELDHLRNNANGELAPSSLSEQNLKYYSFLEHLYFRLGSKGSRLKMDFTWYDAEYSSAQKGLKYTQHTLAFEKSCTLFNIAVIFTQIARENINEDYKNSIANLTKAFSCFEYLSENFLNSPSVDLQSENTRFLANICHAEAQELFVLKLLNDQISSKQYTLISKLSRATCNLFQKCHDFMKEIDDDVAIYGEPKWKTTVTCKLHFYKSLSAYYHGLHLEEENRVGEAIAFLDFSMQQLISSLPFKTWLVEFIDFDGFKETLEKKQKELIKDNDFIYHESVPAVVQVDSIKALDAIKSPTWEKILEPYMQDVANKYDSLYRGIIPLDVYEKESIYSEEKATLLR | soluble |
| AHHHHHHGSIRVRNLSFSYNGRAILRDIAFEVKEGEFLAILGPNGAGKSTLLRCLAKILKCEGEIEICGRNLHEYSRRELSKTIAYVPQRVEPNFLRVFDMVLLGRKPYMGIIPSEEDIKAVERALKTLKIEHLAGRLTKTLSGGELQKVAIARALAQESSIILLDEPTNNLDPRSQVDLMNLLRKLSQAGKTIVTVMHDINLALRFAEKLMFMKNGEVVGIVETKKISPEIIEETFNVKAEIFETPSGVKFCQFY | soluble |
| MSLNVQTVAVIGSGTMGAGIAEVAASHGHQVLLYDISAEALTRAIDGIHARLNSRVTRGKLTAETCERTLKRLIPVTDIHALAAADLVIEAASERLEVKKALFAQLAEVCPPQTLLTTNTSSISITAIAAEIKNPERVAGLHFFNPAPVMKLVEVVSGLATAAEVVEQLCELTLSWGKQPVRCHSTPGFIVNRVARPYYSEAWRALEEQVAAPEVIDAALRDGAGFPMGPLELTDLIGQDVNFAVTCSVFNAFWQERRFLPSLVQQELVIGGRLGKKSGLGVYDWRAEREAVVGLEAVSDSFSPMKVEKKSDGVTEIDDVLLIETQGETAQALAIRLARPVVVIDKMAGKVVTIAAAAVNPDSATRKAIYYLQQQGKTVLQIADYPGMLIWRTVAMIINEALDALQKGVASEQDIDTAMRLGVNYPYGPLAWGAQLGWQRILRLLENLQHHYGEERYRPCSLLRQRALLESGYESEGHHHHHH | soluble |
| GPGSMIRRYSLAIGGSCCCPAPRLISTEAFVSSVEKVQHQLGTSERKQDLILHGRQLFENESLDDIHSAWTPVVAGKICHAATQLRISPTKGQPFGAVVGLSLTPEAVGVMDAPSLARIAHSCLILRSPHLYEVLFTYIRRLITLAATLDTVSCAVLINAYGRAQVHHEEFYKVICDRAAVVMKDPRTFVAHTANVAHALSRVRYFHRDLFLTLRDQAERQASQGPPLVAVTILDGFAEIGFVDDALFTALEQRLLGELAELPAPLMASLVSCLAKAGRAPSPLFTACGERIVAIGNTFDSNSIAKTCDAFYRANVPAEEVLGTLAERACKVVADFRPDEINQTLSSLASFDLFDGELFPLLASRFVSIVKQGGYVSPVDAAGILTSFAVVQERSDELVHVCTQLLSVHRDALDGITLLQTLWACVTLNVRNEAQQNLLQCLSSGAVVLPDEASAEKESKVVLERLLFVKKAYGLQ | not soluble |
| MLIFGVIMVTIIVLFHPILTNQRDTIVTSTFKEIASDACYYINLGVKVEDYEHEPLNNLVGNVKCNFLGISVDSTTGEIRVTLKFEVNGNAQDFASGIIEYIKRRITEIRGFTITDKGEIFYRDSKITIEILTLEHHHHHH | not soluble |
| GHMFESAEVGHSIDKDTYEKAVIELREALLEAQFELKQQARFPVIILINGIEGAGKGETVKLLNEWMDPRLIEVQSFLRPSDEELERPPQWRFWRRLPPKGRTGIFFGNWYSQMLYARVEGHIKEAKLDQAIDAAERFERMLCDEGALLFKFWFHLSKKQLKERLKALEKDPQHSWKLSPLDWKQSEVYDRFVHYGERVLRRTSRDYAPWYVVEGADERYRALTVGRILLEGLQAALATKERAKRQPHAAPLVSSLDNRGLLDSLDLGQYLDKDAYKEQLAAEQARLAGLIRDKRFRQHSLVAVFEGNDAAGKGGAIRRVTDALDPRQYHIVPIAAPTEEERAQPYLWRFWRHIPARRQFTIFDRSWYGRVLVERIEGFCAPADWLRAYGEINDFEEQLSEYGIIVVKFWLAIDKQTQMERFKEREKTPYKRYKITEEDWRNRDKWDQYVDAVGDMVDRTSTEIAPWTLVEANDKRFARVKVLRTINDAIEAAYKKDKGA | soluble |
